Measurements: publication PMC10190621 (Advanced Science, 2023)

Target: T1, His-tagged KEAP1 (C-terminal amino acids 312-624, containing the Kelch domain) (human, UniProt Q14145 312-624)
T1 construct: plasmid by Tsingke Biotechnology; also called His-KEAP1; Kelch domain of KEAP1; source: E. coli BL21 (DE3), purified (Ni-NTA column, gel filtration)
Experiment: pull-down; His pulldown, competition: 10 µg His-KEAP1 on His immunomagnetic beads, mixed with NRF2 and 5 or 10 µg DDRGK1 protein at 4 °C overnight, washed three times, immunoblot
Conditions: both partners purified

T1 sequence (Q14145 312-624): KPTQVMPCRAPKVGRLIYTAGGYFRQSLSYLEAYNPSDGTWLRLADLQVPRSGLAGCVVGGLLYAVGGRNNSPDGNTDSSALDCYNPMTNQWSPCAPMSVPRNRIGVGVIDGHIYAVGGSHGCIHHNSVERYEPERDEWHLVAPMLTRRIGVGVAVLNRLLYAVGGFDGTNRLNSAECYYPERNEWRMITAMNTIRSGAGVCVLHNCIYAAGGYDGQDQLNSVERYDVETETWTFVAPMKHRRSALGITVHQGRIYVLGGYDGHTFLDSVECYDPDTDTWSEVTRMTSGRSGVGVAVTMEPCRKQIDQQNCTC

binding result: binds
B1: GST-tagged NRF2 (N-terminal amino acids 1-84, containing domains interacting with KEAP1) (domain or fragment, human, UniProt Q16236 1-84, looked up)
chain: MMDLELPPPGLPSQQDMDLIDILWRQDIDLGVSREVFDFSQRRKEYELEKQKKLEKERQEQLQKEQEKAFFAQLQLDEETGEFL
notes: N-terminal domain (residues 1-84) of human NRF2; plasmid by Tsingke Biotechnology; also called GST-NRF2; NRF2 protein; source: E. coli BL21 (DE3), purified (GSH column, gel filtration)
